From patent US7993884B2, “Beta-xylosidase for conversion of plant cell wall carbohydrates to simple sugars” (The United States of America as represented by the …, priority 2006, dated 2011)

Tests used:
[1] = substrate: O=[N+]([O-])c1ccc(O[C@@H]2O[C@@H](CO)[C@H](O)[C@H]2O)cc1; assay: purified protein, by the assay type; settings: other: 100 mM succinate-NaOH, pH 5.3, 25° C, Method A
Method: (§1) Site-directed mutagenesis was performed using the QuikChange site-directed mutagenesis kit (Stratagene) according the manufacturer's instructions. […] Complete sequences were determined on a 3700 sequencer (Applied Biosystems) using T7 promoter and specific primers to confirm that only the intended mutations had been introduced. Lasergene software (DNAStar) was used to analyze the sequence data. pSRA1 and its mutated plasmids were used for the transformation of E. coli BL21(DE3). Transformants were inoculated to 50 mL Luria-Bertani (LB) broth supplemented with 50 mg ampicillin/mL and the flask was shaken overnight at 250 rpm and 37° C. Twenty mL of the overnight culture were transferred to a 2.8-liter baffled flask containing 1.0 liter SOB medium [2.0% tryptone, 0.5% yeast extract, 0.05% NaCl, 0.0186% KCl (all in wt/vol) and 10 mM MgSO4] supplemented with 50 mg ampicillin/mL. The culture was shaken at 250 rpm and 37° C. […] Cells were harvested by centrifugation and cell pellets were stored at −80° C. until use.
(§2) Initial purification steps and diafiltration steps were performed at 4° C. Chromatography was at room temperature (˜24° C.). Cells were thawed, suspended in 40 mL of 50 mM Tris-HCl, pH 7.5 (Buffer A) containing Complete protease inhibitor cocktail (Roche) and disrupted by sonication. Following centrifugation, the supernatant was brought to 30% saturation with respect to ammonium sulfate and centrifuged. […] The column was washed until absorbance at 280 nm of the eluate became minimal (˜200 mL) and developed with a 500-mL linear gradient (Buffer A+30% saturated ammonium sulfate to Buffer A).
(§3) Two methods were employed for determining initial rates. […] Initial rates were calculated from fitting the absorbance readings versus time to a line (minimum of 4 points per reaction progression) and by using an extinction coefficient of 17.4 mM^−1 cm^−1. […] The concentration of 4NP substrates was determined by incubating the substrate with excess enzyme until an end point was reached, adding an aliquot (0.01 to 0.1 mL) to 0.1 M NaOH, recording the absorbance at 400 nm and using the extinction coefficient of 18.3 cm^−1mM^−1. Unless indicated otherwise, for both Methods A and B, reactions were initiated by adding a small aliquot of enzyme (generally 7 μl of enzyme diluted into 10 mM sodium phosphate, pH 7.0, and incubated on wet ice or at ˜25° C.) to the 1-mL, temperature-equilibrated (25° C.) reaction mixtures. For pH studies, buffers of constant ionic strength (I=0.3 M), adjusted with NaCl, were used as indicated: 100 mM succinate-NaOH (pH 4.3-6), 100 mM sodium phosphate (pH 6-8), 30 mM sodium pyrophosphate (pH 8-9), glycine-NaOH (pH 9) and glycylglycine-NaOH (pH 9).

[2] = substrate: O=[N+]([O-])c1ccc(O[C@@H]2OC[C@@H](O)[C@H](O)[C@H]2O)cc1; assay: purified protein, by the assay type; settings: other: 100 mM succinate-NaOH, pH 5.3, 25° C, Method A
Method: as §1, §2, §3

Protein | Km [1] [µM] | Km [2] [µM] | Km ([2]; not well determined (highest 4NPX 5 mM)) [µM]
Selenomonas ruminantium GA192 β-D-xylosidase (SXA, parent SEQ ID NO: 2) variant E186A (Pseudoselenomonas ruminantium; E186A) (protein) MNIQNPVLKGFNPDPSIVRAGDDYYIATSTFEWFPGVQIHHSKDLVHWHLVAHPLSTTEFLDMKGNPDSGGIWAPDLSYADGKFWLIYTDVKVVDGMWKDCHNYLTTAEDIKGPWSKPILLNGAGFDASLFHDPSGKKYLVNMYWDQRVYHHNFYGIALQEYSVAEEKLIGKPEIIYKGTDIAYTAGPHLYYINDMYYLMTAEGGTTYQHSETIARSKTIHGPYEIQPDYPLLSAWKEVHNPLQKCGHASLVETQNGQWYLAHLTGRPLPAPAGFPSREREQHAFCPLGRETAIQKIEWQDGWPVVVGGQQGSLEVEAPDLPQQEWAPTYEERDDFDKDTLNINFQTLRIPFSEHLGSLTARPGFLRLYGRESLQSKFTQAHIARRWQSFNFDAGTSVEFSPNSFQQMAGLTCYYNTENWSSIHVTWNEEKGRIIDLVTADNGTFSMPLAGAEIPIPDEVKTVHFKVSVRGRIYQYAYSFDGETFHTLPIELPSWKLSDDYVRGGGFFTGAFVGINAIDITGTALPADFDYFTYKELD | 1320 ± 110 | 1100 ± 50 | 
Selenomonas ruminantium GA192 β-D-xylosidase (SXA, parent SEQ ID NO: 2) variant H248A (Pseudoselenomonas ruminantium; H248A) (protein) MNIQNPVLKGFNPDPSIVRAGDDYYIATSTFEWFPGVQIHHSKDLVHWHLVAHPLSTTEFLDMKGNPDSGGIWAPDLSYADGKFWLIYTDVKVVDGMWKDCHNYLTTAEDIKGPWSKPILLNGAGFDASLFHDPSGKKYLVNMYWDQRVYHHNFYGIALQEYSVAEEKLIGKPEIIYKGTDIAYTEGPHLYYINDMYYLMTAEGGTTYQHSETIARSKTIHGPYEIQPDYPLLSAWKEVHNPLQKCGAASLVETQNGQWYLAHLTGRPLPAPAGFPSREREQHAFCPLGRETAIQKIEWQDGWPVVVGGQQGSLEVEAPDLPQQEWAPTYEERDDFDKDTLNINFQTLRIPFSEHLGSLTARPGFLRLYGRESLQSKFTQAHIARRWQSFNFDAGTSVEFSPNSFQQMAGLTCYYNTENWSSIHVTWNEEKGRIIDLVTADNGTFSMPLAGAEIPIPDEVKTVHFKVSVRGRIYQYAYSFDGETFHTLPIELPSWKLSDDYVRGGGFFTGAFVGINAIDITGTALPADFDYFTYKELD |  | 1050 ± 70 | 
Selenomonas ruminantium GA192 β-D-xylosidase (SXA, parent SEQ ID NO: 2) variant R290A (Pseudoselenomonas ruminantium; R290A) (protein) MNIQNPVLKGFNPDPSIVRAGDDYYIATSTFEWFPGVQIHHSKDLVHWHLVAHPLSTTEFLDMKGNPDSGGIWAPDLSYADGKFWLIYTDVKVVDGMWKDCHNYLTTAEDIKGPWSKPILLNGAGFDASLFHDPSGKKYLVNMYWDQRVYHHNFYGIALQEYSVAEEKLIGKPEIIYKGTDIAYTEGPHLYYINDMYYLMTAEGGTTYQHSETIARSKTIHGPYEIQPDYPLLSAWKEVHNPLQKCGHASLVETQNGQWYLAHLTGRPLPAPAGFPSREREQHAFCPLGAETAIQKIEWQDGWPVVVGGQQGSLEVEAPDLPQQEWAPTYEERDDFDKDTLNINFQTLRIPFSEHLGSLTARPGFLRLYGRESLQSKFTQAHIARRWQSFNFDAGTSVEFSPNSFQQMAGLTCYYNTENWSSIHVTWNEEKGRIIDLVTADNGTFSMPLAGAEIPIPDEVKTVHFKVSVRGRIYQYAYSFDGETFHTLPIELPSWKLSDDYVRGGGFFTGAFVGINAIDITGTALPADFDYFTYKELD |  |  | 50300 ± 8800
Selenomonas ruminantium GA192 β-D-xylosidase (SXA, parent SEQ ID NO: 2) variant D14A (Pseudoselenomonas ruminantium; D14A) (protein) MNIQNPVLKGFNPAPSIVRAGDDYYIATSTFEWFPGVQIHHSKDLVHWHLVAHPLSTTEFLDMKGNPDSGGIWAPDLSYADGKFWLIYTDVKVVDGMWKDCHNYLTTAEDIKGPWSKPILLNGAGFDASLFHDPSGKKYLVNMYWDQRVYHHNFYGIALQEYSVAEEKLIGKPEIIYKGTDIAYTEGPHLYYINDMYYLMTAEGGTTYQHSETIARSKTIHGPYEIQPDYPLLSAWKEVHNPLQKCGHASLVETQNGQWYLAHLTGRPLPAPAGFPSREREQHAFCPLGRETAIQKIEWQDGWPVVVGGQQGSLEVEAPDLPQQEWAPTYEERDDFDKDTLNINFQTLRIPFSEHLGSLTARPGFLRLYGRESLQSKFTQAHIARRWQSFNFDAGTSVEFSPNSFQQMAGLTCYYNTENWSSIHVTWNEEKGRIIDLVTADNGTFSMPLAGAEIPIPDEVKTVHFKVSVRGRIYQYAYSFDGETFHTLPIELPSWKLSDDYVRGGGFFTGAFVGINAIDITGTALPADFDYFTYKELD | 771 ± 29 | 777 ± 36 | 
Selenomonas ruminantium GA192 β-D-xylosidase (SXA, parent SEQ ID NO: 2) variant D127A (Pseudoselenomonas ruminantium; D127A) (protein) MNIQNPVLKGFNPDPSIVRAGDDYYIATSTFEWFPGVQIHHSKDLVHWHLVAHPLSTTEFLDMKGNPDSGGIWAPDLSYADGKFWLIYTDVKVVDGMWKDCHNYLTTAEDIKGPWSKPILLNGAGFAASLFHDPSGKKYLVNMYWDQRVYHHNFYGIALQEYSVAEEKLIGKPEIIYKGTDIAYTEGPHLYYINDMYYLMTAEGGTTYQHSETIARSKTIHGPYEIQPDYPLLSAWKEVHNPLQKCGHASLVETQNGQWYLAHLTGRPLPAPAGFPSREREQHAFCPLGRETAIQKIEWQDGWPVVVGGQQGSLEVEAPDLPQQEWAPTYEERDDFDKDTLNINFQTLRIPFSEHLGSLTARPGFLRLYGRESLQSKFTQAHIARRWQSFNFDAGTSVEFSPNSFQQMAGLTCYYNTENWSSIHVTWNEEKGRIIDLVTADNGTFSMPLAGAEIPIPDEVKTVHFKVSVRGRIYQYAYSFDGETFHTLPIELPSWKLSDDYVRGGGFFTGAFVGINAIDITGTALPADFDYFTYKELD |  | 881 ± 59 | 
